Here are results for 167 variants from the RNAGym collection of RNA variant scans (doi:10.7554/elife.90254).

First the molecules themselves.
B1: LINE1-full (parent)
chain: UACGUAGGUGGUUUUCCCCUGAUAGUGCUAAGGGGGCCUGGAAGUUUGGACUGGGCAGAGCUCAACACAGCGUGGCAAAGUGGCUGUGGCUAGACUGCCUCUCUGGAUUCCUCGUCACUCAGCAGGGCAUCUCUGAGAGAAAUGCC

Variants of B1 are the subject of this data set. Description: self-cleavage, relative activity (ratio to wild type); higher = more cleavage; in vitro, sequencing; the parent is a self-cleaving ribozyme.
Turning to A22C A129G, the self-cleavage came out at 1.39.
For U20G U73C, the self-cleavage stood at 1.39.
In the case of U20G U73G, the self-cleavage came out at 0.49.
Take U20A A79U: the self-cleavage is 1.59.
Take A22G C38U: the self-cleavage was determined as 1.95.
With U20A U29C, the self-cleavage was determined as 1.09.
Regarding U20C U104A, the self-cleavage was found to be 1.17.
To U20C A94G belongs 0.39; to U20C A94U, 0.28.
Consider C19U U20C, for which the self-cleavage stood at 0.93.
U20C G40A: the self-cleavage amounted to 1.1.
To U20A A50G belongs 1.2; to G21A C38A, 1.07.
As for U20A C38U, the self-cleavage amounted to 0.87.
Take U20C A140U: the self-cleavage came to 0.95.
On to U20C A140C, for which the self-cleavage worked out at 2.05.
Consider A22C U39C, for which the self-cleavage came out at 2.06.
To U20A A124G belongs 0.76; to U20A A124U, 0.91.
As to U20C G75A, the self-cleavage amounted to 1.16.
In the case of U20G U39C, the self-cleavage is 0.98.
C19U G36C: the self-cleavage amounted to 0.82.
Turning to A22C A42G, the self-cleavage worked out at 1.86.
To U20A U108C belongs 1.95; to U20C C101U, 1.11; to A22G C51A, 0.4.
For G21U U45C, the self-cleavage stood at 1.44.
The figure for U20C A117C is 1.64; for U20C A117U it is 1.61; for U20G U52A it is 1.36.
For U20A A107G, the self-cleavage is 1.37.
As for A22G A107U, the self-cleavage is 0.
To U20A G41C belongs 0.73; to U20A G41U, 0.96.
On to U20C U115C, for which the self-cleavage came to 1.57.
For the variant A22G C37G, the self-cleavage was 0.79.
U20C G25A: the self-cleavage came to 0.84.
As to G21A U52A, the self-cleavage came to 1.76.
U20G A78G: the self-cleavage turned out to be 1.1.
A22G A59G: the self-cleavage was 0.16.
To A22C U102C belongs 1.55.
The figure for C19U U96C is 0.18.
On to U20G U85G, for which the self-cleavage amounted to 0.1.
To U20G U85C belongs 0.18.
In the case of U20A A69G, the self-cleavage is 0.45.
Turning to U20C C118U, the self-cleavage was 1.2.
To U20C C118G belongs 1.45; to U20G U115C, 1.95.
With U20G A129C, the self-cleavage was determined as 1.95.
Take U20C A121U: the self-cleavage amounted to 1.44.
On to U20A U100A, for which the self-cleavage stood at 0.78.
As for U20A U100C, the self-cleavage was determined as 1.49.
With U20A G49A, the self-cleavage stood at 1.37.
For the variant U20A U143A, the self-cleavage is 1.43.
Take U20A U143C: the self-cleavage was found to be 0.9.
The figure for U20A C51U is 0.77.
Consider U20A C51A, for which the self-cleavage came out at 0.82.
For the variant C19U U52A, the self-cleavage was found to be 1.28.
C19U U52G: the self-cleavage amounted to 0.5.
To C19U G40A belongs 1; to C19U G72C, 1.31.
In the case of C19U G72A, the self-cleavage turned out to be 1.19.
Take U20C U45C: the self-cleavage stood at 1.19.
Regarding U20C U45G, the self-cleavage turned out to be 1.38.
On to U20C U45A, for which the self-cleavage came to 1.2.
Regarding U20C C133U, the self-cleavage turned out to be 1.16.
For the variant G21A G137A, the self-cleavage was 1.21.
To U20C G114A belongs 1.57.
Turning to U20A C131U, the self-cleavage was found to be 1.36.
To U20A U104C belongs 0.93; to U20C C113U, 1.62.
In the case of U20A A140G, the self-cleavage was 1.16.
Regarding U20A A140U, the self-cleavage was 1.7.
As for C19U U29C, the self-cleavage amounted to 1.37.
As for U20G U46C, the self-cleavage was found to be 2.3.
As to U20A C63U, the self-cleavage amounted to 0.45.
For the variant G21U A79G, the self-cleavage came to 1.32.
The figure for U20A U47C is 1.31; for U20A U47A it is 1.07.
With A22G A57G, the self-cleavage was found to be 0.67.
For A22G A57U, the self-cleavage was 0.2.
For G21U U47C, the self-cleavage came out at 0.72.
The figure for U20C U39G is 0.8.
Take U20A U96A: the self-cleavage is 0.05.
To C19U G105U belongs 1.55; to A22G C90U, 0.04; to U20A U109A, 0.88.
Turning to U20A U109C, the self-cleavage was determined as 1.25.
Regarding A22G C76G, the self-cleavage is 2.86.
As to U20A G114A, the self-cleavage turned out to be 1.4.
Consider U20C G49A, for which the self-cleavage turned out to be 1.54.
As for C19U G75A, the self-cleavage is 1.11.
Take G21A A59U: the self-cleavage worked out at 0.57.
For U20C G32U, the self-cleavage was 0.94.
To U20G U47C belongs 0; to U20G U47A, 0.51.
The figure for U20C C95U is 0.27.
As to U20C C95A, the self-cleavage was 0.09.
With C19U G48A, the self-cleavage was 0.72.
For U20C U132C, the self-cleavage is 1.23.
To U20C U132A belongs 1.63; to U20C A138U, 1.42.
To U20C A138G belongs 1.55; to A22G C68U, 0.98; to A22G A124G, 0.96.
Consider A22G A124C, for which the self-cleavage was 1.49.
Regarding A22G A124U, the self-cleavage came out at 0.8.
As for U20A C66U, the self-cleavage came out at 0.02.
The figure for U20A U81C is 0.84.
Consider C19U U115C, for which the self-cleavage was found to be 1.79.
Regarding G21U G127A, the self-cleavage came to 1.99.
On to U20A G139A, for which the self-cleavage worked out at 0.53.
The figure for U20G A141G is 0.87; for A22G A79U it is 1.51; for U20G G135A it is 0.98.
To U20C U23C belongs 1.2.
To U20C U23A belongs 1.81.
As to U20A U46A, the self-cleavage was 0.96.
U20A U46C: the self-cleavage turned out to be 1.49.
To G21A U73C belongs 1.41.
To U20C U96A belongs 0.12; to U20A A42G, 1.06.
U20C G36A: the self-cleavage amounted to 1.23.
Consider U20G U109C, for which the self-cleavage amounted to 0.93.
On to U20G U109G, for which the self-cleavage is 0.43.
For the variant U20C G41A, the self-cleavage amounted to 1.27.
As for C19U U119C, the self-cleavage was found to be 1.38.
To U20C C76U belongs 2.18; to C19U U23C, 0.79; to C19U U23A, 1.1.
Take U20G G127A: the self-cleavage amounted to 1.37.
To U20C A57U belongs 0.07; to U20C A57G, 1.19.
For U20C U119C, the self-cleavage worked out at 1.35.
As to U20A G135U, the self-cleavage was 0.43.
As to C19U G34A, the self-cleavage came to 0.75.
To G21C U47A belongs 0.91; to U20A U23C, 0.83.
For A22C U96C, the self-cleavage turned out to be 0.26.
On to C19U U134C, for which the self-cleavage is 1.09.
For the variant C19U U134A, the self-cleavage came out at 0.81.
As to A22C U81C, the self-cleavage amounted to 1.04.
The figure for G21C U109C is 1.18; for U20G G74A it is 1.29; for U20A A78G it is 1.39.
With C19U U26C, the self-cleavage came to 1.32.
For the variant C19U U26A, the self-cleavage was determined as 0.95.
Take U20A A64U: the self-cleavage was 0.36.
On to U20A C71U, for which the self-cleavage amounted to 1.22.
In the case of C19U U81C, the self-cleavage turned out to be 1.
For U20A A30G, the self-cleavage came to 0.9.
As to U20A A136G, the self-cleavage was 0.93.
In the case of U20G U104A, the self-cleavage was determined as 1.29.
Take U20C C116A: the self-cleavage came out at 1.5.
For the variant U20C G83A, the self-cleavage was determined as 1.
Turning to A22G C95U, the self-cleavage was 0.53.
As to U20C U130A, the self-cleavage turned out to be 1.65.
U20C U130G: the self-cleavage came to 1.63.
Consider U20C U130C, for which the self-cleavage was found to be 1.77.
As for A22G A43U, the self-cleavage was determined as 0.88.
For the variant C19U G93A, the self-cleavage amounted to 0.07.
As to C19U U102C, the self-cleavage was 0.73.
The figure for A22C A124G is 1.92.
With U20C A50U, the self-cleavage stood at 1.32.
As for A22G A142U, the self-cleavage amounted to 0.92.
The figure for U20C G48U is 1.27; for G21U A92G it is 0.1.
